Where “and” joins values, the source holds several entries; their conditions need not be identical. Identical values can stand only once. Each block holds one molecule with its values, some of them ahead of it.
Experiments:
[1] = target: lamin B1Δrod mutant (human) (UniProt P20700); test: binding to an immobilised lamin matrix with urea step elution
[2] = target: wild-type lamin B1 (human) (UniProt P20700); test: as above
[3] = target: lamin B1Δrod mutant (human) (UniProt P20700); test: cross-linking
[4] = target: T1, wild-type lamin B1 (human), P20700; test: cross-linking; settings: remark: other sources report otherwise
T1 chain: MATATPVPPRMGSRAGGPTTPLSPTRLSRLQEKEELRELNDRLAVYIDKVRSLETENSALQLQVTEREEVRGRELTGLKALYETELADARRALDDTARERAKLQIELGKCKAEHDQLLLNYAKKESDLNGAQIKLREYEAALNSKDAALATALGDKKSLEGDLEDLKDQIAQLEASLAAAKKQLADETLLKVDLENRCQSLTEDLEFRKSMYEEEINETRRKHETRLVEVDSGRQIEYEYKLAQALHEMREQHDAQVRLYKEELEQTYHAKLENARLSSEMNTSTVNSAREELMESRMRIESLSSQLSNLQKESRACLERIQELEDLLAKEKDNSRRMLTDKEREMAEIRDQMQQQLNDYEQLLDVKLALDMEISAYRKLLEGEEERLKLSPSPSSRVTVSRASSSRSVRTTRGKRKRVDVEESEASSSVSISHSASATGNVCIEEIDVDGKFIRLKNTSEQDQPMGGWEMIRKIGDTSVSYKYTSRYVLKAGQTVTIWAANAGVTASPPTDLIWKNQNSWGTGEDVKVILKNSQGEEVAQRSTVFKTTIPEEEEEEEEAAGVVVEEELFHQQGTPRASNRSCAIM

[5] = target: T1, wild-type lamin B1 (human), P20700; test: binding to an immobilised lamin matrix with urea step elution; settings: remark: other sources report otherwise

- urea concentration at which most protein eluted [1]: 4 M and 7 M
Molecule: wild-type lamin B1 (from UniProt P20700 1-586) (natural protein)

- stoichiometry N [4]: 2
- urea concentration at which most protein eluted [5]: 7 M and 4 M
B1: wild-type lamin B1, P20700 1-586 (natural protein)
chain: T1 chain

Second part, the molecule before the results:

Molecule: lamin A (from UniProt P02545 1-646) (natural protein)
- urea concentration at which the majority eluted [1]: 2 M and 4 M
- urea concentration at which the majority eluted [2]: 7 M

Molecule: lamin B1Δrod mutant (from UniProt P20700 1-69; P20700 340-586) (natural protein)
- stoichiometry N [3]: 2

Molecule: lamin C (from UniProt P02545-2 1-572) (natural protein)
- urea concentration at which elution began [1]: 0.5 M
- urea concentration at which the majority eluted [1]: 2 to 3 M
- urea concentration at which elution began [2]: 3 M
- urea concentration at which the majority eluted [2]: 5 to 7 M

From publication PMC2190570
